Source: the supplement of paper PMC7125110
± gives the standard error. For some assays here: This sample holds only a part of the variants without activity.

B1: glmS ribozyme (parent)
chain: AUAAAAGCGCCAGAACUACAGAAAUGUAGUUGACGAGGAGGAGGUUUAUCGAAUUUUCGGCGGAUGCCUCCAAA

Tests used:
Conditions in all cases: with glucosamine-6-phosphate
[1] = variants of: B1; experiment: kcat; higher = faster cleavage; RNA array
Summary of the method: (§1)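 Barcoded ribozyme variants were transcribed in situ on sequenced MiSeq chips by E. coli RNA polymerase. At 37 °C, a hybridised Cy3 probe tracked them while glucosamine-6-phosphate (40 μM to 10 mM) in HEPES/KCl/Mg(OAc)2 buffer flowed in and tiles were imaged over ~14 h. Per-tile medians of signals normalised to baseline and to non-cleaving reference variants were fit to one- or two-exponential decays, giving kobs. kcat and KM came from weighted Michaelis–Menten fits across concentrations.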

[2] = variants of: B1; experiment: KM; higher = weaker cofactor use; RNA array
Summary of the method: as §1

[3] = variants of: B1; experiment: self-cleavage kobs at 160 uM GlcN6P; higher = faster cleavage; RNA array
Summary of the method: as §1

[4] = variants of: B1; experiment: self-cleavage kobs at 40 uM GlcN6P; higher = faster cleavage; RNA array
Summary of the method: as §1

[5] = variants of: B1; experiment: self-cleavage kobs at 2500 uM GlcN6P; higher = faster cleavage; RNA array
Summary of the method: as §1

[6] = variants of: B1; experiment: self-cleavage kobs at 640 uM GlcN6P; higher = faster cleavage; RNA array
Summary of the method: as §1

[7] = variants of: B1; experiment: self-cleavage kobs at 10000 uM GlcN6P; higher = faster cleavage; RNA array
Summary of the method: as §1

Row | Variant | kcat [1] | KM [2] | self-cleavage kobs at 160 uM GlcN6P [3] | self-cleavage kobs at 40 uM GlcN6P [4] | self-cleavage kobs at 2500 uM GlcN6P [5] | self-cleavage kobs at 640 uM GlcN6P [6] | self-cleavage kobs at 10000 uM GlcN6P [7]
1 | G43U A53U | 2.65e-05 ± 2.2e-06 s⁻¹ | 2760 ± 880 µM | < 1e-05 s⁻¹ | – | – | – | –
2 | G43U A53G | 4.73e-05 ± 1.7e-06 s⁻¹ | 793 ± 120 µM | – | < 1e-05 s⁻¹ | 3.6e-05 ± 1.5e-05 s⁻¹ | – | –
3 | G43U A53C | 2.22e-05 ± 5.7e-07 s⁻¹ | 7310 ± 400 µM | – | – | – | – | –
4 | U45A C70A | 0.000375 ± 0.00017 s⁻¹ | – | 2.63e-05 ± 1.1e-05 s⁻¹ | – | 0.000225 ± 3.4e-05 s⁻¹ | 0.000179 ± 3.7e-05 s⁻¹ | –
5 | U45A C71A | 0.00337 ± 0.0013 s⁻¹ | – | 0.000518 ± 0.00016 s⁻¹ | 0.00019 ± 3.7e-05 s⁻¹ | 0.00202 ± 0.00085 s⁻¹ | 0.000907 ± 0.00022 s⁻¹ | 0.00396 ± 0.00073 s⁻¹
6 | U45A C71U | 0.0639 ± 0.022 s⁻¹ | 2060 ± 810 µM | 0.00507 ± 0.00093 s⁻¹ | 0.00126 ± 0.00019 s⁻¹ | – | 0.012 ± 0.0029 s⁻¹ | 0.0584 ± 0.019 s⁻¹
7 | G44U U46G | 0.000218 ± 4.7e-05 s⁻¹ | 3350 ± 1300 µM | – | < 1e-05 s⁻¹ | 0.000102 ± 1.5e-05 s⁻¹ | 2.83e-05 ± 1e-05 s⁻¹ | 0.000146 ± 3.9e-05 s⁻¹
8 | U45G U55G | 0.00804 ± 0.002 s⁻¹ | 2970 ± 1000 µM | 0.000304 ± 4.5e-05 s⁻¹ | 0.000146 ± 1.5e-05 s⁻¹ | 0.00365 ± 0.00057 s⁻¹ | 0.00148 ± 0.00024 s⁻¹ | 0.00624 ± 0.00057 s⁻¹
9 | G43A U45G C58G | 2.82e-05 ± 8e-07 s⁻¹ | 199 ± 61 µM | – | – | – | – | –
10 | U46A G62A | < 1e-05 s⁻¹ | – | – | < 1e-05 s⁻¹ | < 1e-05 s⁻¹ | – | –
11 | G44C U54C | 0.000264 ± 8.4e-05 s⁻¹ | – | – | – | 0.000133 ± 2.4e-05 s⁻¹ | – | 0.000179 ± 3e-05 s⁻¹
12 | U45G C58A | 0.000297 ± 2.9e-05 s⁻¹ | 3170 ± 620 µM | – | – | 0.000147 ± 2.3e-05 s⁻¹ | 4.61e-05 ± 9.8e-06 s⁻¹ | 0.00022 ± 2.6e-05 s⁻¹
13 | U46C C70U | 0.00656 ± 0.0027 s⁻¹ | – | 0.00026 ± 3.8e-05 s⁻¹ | 0.00017 ± 2.3e-05 s⁻¹ | 0.00301 ± 0.00041 s⁻¹ | 0.00156 ± 0.00017 s⁻¹ | 0.00508 ± 0.00066 s⁻¹
14 | A42U U55G | 0.000182 ± 1.6e-05 s⁻¹ | 577 ± 150 µM | 5.02e-05 ± 1.6e-05 s⁻¹ | – | 0.000164 ± 2.3e-05 s⁻¹ | 8.8e-05 ± 1.4e-05 s⁻¹ | 0.000167 ± 2.3e-05 s⁻¹
15 | U45C C68U | 0.00315 ± 0.00089 s⁻¹ | 4960 ± 2100 µM | 8.24e-05 ± 1.9e-05 s⁻¹ | 3.71e-05 ± 1e-05 s⁻¹ | 0.000877 ± 0.00019 s⁻¹ | 0.000525 ± 0.00011 s⁻¹ | 0.00218 ± 0.00028 s⁻¹
16 | U45C C68G | 9.46e-05 ± 8.6e-06 s⁻¹ | 714 ± 250 µM | – | – | 8.62e-05 ± 1.5e-05 s⁻¹ | 4.14e-05 ± 1.1e-05 s⁻¹ | 8.34e-05 ± 1.2e-05 s⁻¹

Row | Variant | kcat [1] | KM [2] | self-cleavage kobs at 160 uM GlcN6P [3] | self-cleavage kobs at 40 uM GlcN6P [4] | self-cleavage kobs at 2500 uM GlcN6P [5] | self-cleavage kobs at 640 uM GlcN6P [6] | self-cleavage kobs at 10000 uM GlcN6P [7]
17 | U46A G66C | 0.00211 ± 0.0008 s⁻¹ | – | 0.000161 ± 4.3e-05 s⁻¹ | 5.47e-05 ± 1.7e-05 s⁻¹ | 0.000776 ± 0.00018 s⁻¹ | 0.00053 ± 0.00011 s⁻¹ | 0.00237 ± 0.00038 s⁻¹
18 | U46A G66U | 0.0037 ± 0.001 s⁻¹ | 5940 ± 2100 µM | 8.12e-05 ± 1.9e-05 s⁻¹ | 5.04e-05 ± 2.3e-05 s⁻¹ | 0.00111 ± 0.00027 s⁻¹ | 0.000412 ± 7.3e-05 s⁻¹ | 0.00229 ± 0.00041 s⁻¹
19 | U46C U55A | 0.00288 ± 0.00026 s⁻¹ | 1110 ± 150 µM | – | 9.7e-05 ± 1.5e-05 s⁻¹ | 0.00248 ± 0.00076 s⁻¹ | 0.0011 ± 0.0002 s⁻¹ | 0.00247 ± 0.00041 s⁻¹
20 | U45A G59U | 0.00047 ± 0.00017 s⁻¹ | – | – | < 1e-05 s⁻¹ | 5.25e-05 ± 1.3e-05 s⁻¹ | – | 0.000152 ± 2.4e-05 s⁻¹
21 | G43U U56C | < 1e-05 s⁻¹ | – | < 1e-05 s⁻¹ | – | < 1e-05 s⁻¹ | – | –
22 | U45A C67G | 0.000766 ± 0.00012 s⁻¹ | 2290 ± 680 µM | – | – | 0.000606 ± 0.00012 s⁻¹ | 0.000163 ± 2.6e-05 s⁻¹ | 0.0006 ± 6.8e-05 s⁻¹
23 | G43U A64G | 0.000133 ± 1.2e-05 s⁻¹ | 6370 ± 1300 µM | – | – | 3.85e-05 ± 8.6e-06 s⁻¹ | – | 8.1e-05 ± 8.2e-06 s⁻¹
24 | G43U C68U | 0.00467 ± 0.00089 s⁻¹ | 1190 ± 320 µM | 0.000436 ± 4.8e-05 s⁻¹ | 0.000181 ± 1.5e-05 s⁻¹ | 0.00344 ± 0.00047 s⁻¹ | 0.00188 ± 0.00022 s⁻¹ | 0.00404 ± 0.0004 s⁻¹
25 | G43U C68G | 0.00617 ± 0.0012 s⁻¹ | 527 ± 180 µM | 0.00129 ± 0.00028 s⁻¹ | 0.000533 ± 9.6e-05 s⁻¹ | 0.00416 ± 0.0011 s⁻¹ | 0.00304 ± 0.00052 s⁻¹ | 0.00756 ± 0.0013 s⁻¹
26 | U46A C58A | 2.63e-05 ± 4.4e-06 s⁻¹ | – | – | – | – | – | –
27 | U45G A52U | 0.000421 ± 0.0001 s⁻¹ | – | < 1e-05 s⁻¹ | < 1e-05 s⁻¹ | 7.57e-05 ± 2e-05 s⁻¹ | – | 0.000189 ± 3e-05 s⁻¹
28 | U45C C67A | 0.00652 ± 0.00083 s⁻¹ | 2490 ± 470 µM | 0.000424 ± 0.00012 s⁻¹ | 0.000122 ± 4.8e-05 s⁻¹ | 0.00392 ± 0.0013 s⁻¹ | 0.00119 ± 0.00026 s⁻¹ | 0.00519 ± 0.001 s⁻¹
29 | G43U U65G | 4.38e-05 ± 9.2e-07 s⁻¹ | 2380 ± 190 µM | – | < 1e-05 s⁻¹ | – | – | 3.53e-05 ± 1.1e-05 s⁻¹
30 | A42U U45A | 0.000149 ± 2.4e-05 s⁻¹ | 1500 ± 680 µM | – | – | 0.000134 ± 2.6e-05 s⁻¹ | 3.93e-05 ± 1e-05 s⁻¹ | 0.000123 ± 1.6e-05 s⁻¹
31 | A42U U45G | 0.00034 ± 6.6e-05 s⁻¹ | 1880 ± 720 µM | 4.68e-05 ± 1.4e-05 s⁻¹ | – | 0.000225 ± 3.8e-05 s⁻¹ | 7.31e-05 ± 1.5e-05 s⁻¹ | 0.000278 ± 4.1e-05 s⁻¹
